The record followed here is paper PMC2171675.

In the test the target is neural cell adhesion molecule (NCAM) (mouse (endogenous in brain)) (UniProt P13595). Nature of the test: co-IP.
Chain of UniProt P13595 (P13595 20-1115): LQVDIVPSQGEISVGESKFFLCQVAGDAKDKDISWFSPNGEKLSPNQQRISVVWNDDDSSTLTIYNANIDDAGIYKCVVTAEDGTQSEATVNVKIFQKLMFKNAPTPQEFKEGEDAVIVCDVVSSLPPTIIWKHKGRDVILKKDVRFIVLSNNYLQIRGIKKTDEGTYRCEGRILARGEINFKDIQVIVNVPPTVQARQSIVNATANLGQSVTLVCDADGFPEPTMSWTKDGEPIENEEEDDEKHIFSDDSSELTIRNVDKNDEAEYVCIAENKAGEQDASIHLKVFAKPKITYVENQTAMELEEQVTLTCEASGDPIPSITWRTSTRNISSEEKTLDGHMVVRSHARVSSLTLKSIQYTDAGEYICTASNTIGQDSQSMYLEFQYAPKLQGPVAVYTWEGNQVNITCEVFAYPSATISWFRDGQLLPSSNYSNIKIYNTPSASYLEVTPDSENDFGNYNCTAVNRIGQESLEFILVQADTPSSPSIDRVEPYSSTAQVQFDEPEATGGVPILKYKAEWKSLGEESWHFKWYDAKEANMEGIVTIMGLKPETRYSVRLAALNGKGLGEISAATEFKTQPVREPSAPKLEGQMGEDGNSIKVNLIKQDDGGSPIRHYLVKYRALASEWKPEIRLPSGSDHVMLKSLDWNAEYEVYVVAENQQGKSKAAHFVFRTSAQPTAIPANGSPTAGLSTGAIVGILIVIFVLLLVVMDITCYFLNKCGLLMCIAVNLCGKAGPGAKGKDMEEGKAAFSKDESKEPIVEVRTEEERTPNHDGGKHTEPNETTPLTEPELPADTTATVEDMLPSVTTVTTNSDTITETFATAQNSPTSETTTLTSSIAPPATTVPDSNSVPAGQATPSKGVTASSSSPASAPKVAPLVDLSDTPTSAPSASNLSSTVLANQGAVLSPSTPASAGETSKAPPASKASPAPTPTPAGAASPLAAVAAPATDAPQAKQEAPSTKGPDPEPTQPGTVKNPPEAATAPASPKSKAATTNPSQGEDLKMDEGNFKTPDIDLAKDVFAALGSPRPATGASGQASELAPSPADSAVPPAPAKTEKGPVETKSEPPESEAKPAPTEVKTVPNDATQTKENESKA

Regarding “receptor-like protein tyrosine phosphatase RPTPα (natural protein)”, the reduction of the co-immunoprecipitated complex with 2 mM EDTA against with Ca2+ was 60%.
